Assay results published in the RNAGym collection of RNA variant scans (doi:10.7554/elife.90254).

B1: LINE1-mini (parent)
chain: GGCAGAGCUCAACACAGCGUGGCAAAGUGGCUGUGGCUAGACUGCC

Variants of: B1
Experiment: self-cleavage, relative activity (ratio to wild type); higher = more cleavage; in vitro, sequencing; the parent is a self-cleaving ribozyme
Variant U28C A41G has a self-cleavage of 0.43. With C18G G27A the self-cleavage was 1.04. Work on U20C G36C yielded a self-cleavage of 0.07. C18U A39G gave a self-cleavage of 0.08. Work on U43C C46G yielded a self-cleavage of 0.12. A12U C13G showed a self-cleavage of 0.48. With C42A G44U the self-cleavage was 0.11. Variant G5A G7U has a self-cleavage of 0.26. G36A C45A gave a self-cleavage of 0.14. For A25C G36C, the self-cleavage was 0.07. In the case of U34C, the self-cleavage is reported as 0.13. G7U G35C showed a self-cleavage of 0.08. Variant C10A C46G has a self-cleavage of 0.04. In the case of C10A G35C, the self-cleavage is reported as 0.02. In the case of G1U U28C, the self-cleavage is reported as 0.24. G1A G29U showed a self-cleavage of 1.1. Variant C13U U34A has a self-cleavage of 0.09. Variant G40U U43A has a self-cleavage of 0.08. With U20G U38G the self-cleavage was 0.02. Work on A11C G44U yielded a self-cleavage of 0.03. With C23U A41C the self-cleavage was 0.06. For G36A A39G, the self-cleavage was 0.39. For C18G C46G, the self-cleavage was 0.25. In the case of A24G G33C, the self-cleavage is reported as 0.06. With C10U C15U the self-cleavage was 0.28. For G19A G29C, the self-cleavage was 1.31. With G29U G30U the self-cleavage was 1.72. With A4G U34G the self-cleavage was 0.08. Work on G5C G17C yielded a self-cleavage of 0.03. Work on C15U A24C yielded a self-cleavage of 0.25. Work on A12C U38A yielded a self-cleavage of 0.01. C15G U20G showed a self-cleavage of 0.03. G17A C37G showed a self-cleavage of 0.05. For A11C A41G, the self-cleavage was 0.03. With G30C U38G the self-cleavage was 0.03. For C8A A41G, the self-cleavage was 0.29. For A12C G40A, the self-cleavage was 0.04. G21A G35C showed a self-cleavage of 0.19. Work on A4C C42G yielded a self-cleavage of 0.05. In the case of A14G G30U, the self-cleavage is reported as 0.34. In the case of C18A G36A, the self-cleavage is reported as 0.13. With A39U G40C the self-cleavage was 0.18. C23G U34G gave a self-cleavage of 0.23. Variant A6G U9A has a self-cleavage of 0.12. With C8U A11C the self-cleavage was 0.07. With U34A G44A the self-cleavage was 0.06. Variant C15G U28C has a self-cleavage of 0.04. G1U C8A showed a self-cleavage of 0.08. In the case of G21U C42A, the self-cleavage is reported as 0.23. C8A C23G gave a self-cleavage of 0.22. Variant A6U G17C has a self-cleavage of 0.59. Work on A4G A12G yielded a self-cleavage of 0.05. Variant U38A A41G has a self-cleavage of 0.14. For C8A A16G, the self-cleavage was 0.22. With G7A G40U the self-cleavage was 0.27. Variant A12U G27C has a self-cleavage of 0.22. A25G C42U gave a self-cleavage of 0.26. For C23U C31U, the self-cleavage was 0.47. Variant G22A U32A has a self-cleavage of 0.07. For G1U G29C, the self-cleavage was 0.2. With U9C G36A the self-cleavage was 0.09. In the case of C8U A26U, the self-cleavage is reported as 0.36. A25C U38A showed a self-cleavage of 0.22. For C18U A41C, the self-cleavage was 0.05. Work on C8G U9A yielded a self-cleavage of 0.21. In the case of A39C C46U, the self-cleavage is reported as 0.2. U20G A25G gave a self-cleavage of 0.48. G1U A4U showed a self-cleavage of 0.22. G27C G40A showed a self-cleavage of 0.12. Work on A16U U32G yielded a self-cleavage of 0.29. Work on U9G G44U yielded a self-cleavage of 0.08. Variant G1C C31A has a self-cleavage of 0.02. With G21U C45G the self-cleavage was 0.18. Work on C15A C31G yielded a self-cleavage of 0.03. Variant U34G A39C has a self-cleavage of 0.05. C3A G19U showed a self-cleavage of 0.24. Work on G1A U34G yielded a self-cleavage of 0.29. With A4G U20G the self-cleavage was 0.23. For G29U G40U, the self-cleavage was 0.18. G19U A39C showed a self-cleavage of 0.06. G1C U9G showed a self-cleavage of 0.02. Variant G27A C31U has a self-cleavage of 0.26. For C8U A25U, the self-cleavage was 0.18. In the case of A12C G21C, the self-cleavage is reported as 0.03. G17A A25G showed a self-cleavage of 0.07. G29C C45G gave a self-cleavage of 0.19. Variant G33A U43A has a self-cleavage of 0.12. Work on C23A C45U yielded a self-cleavage of 1.97. In the case of G7U G27U, the self-cleavage is reported as 0.08. In the case of C8A C18U, the self-cleavage is reported as 0.27. In the case of G5A G27A, the self-cleavage is reported as 0.1. Work on G35A C37U yielded a self-cleavage of 0.06. For A11G A25U, the self-cleavage was 0.02. Work on G27C G33A yielded a self-cleavage of 0.13. Work on A25C U34A yielded a self-cleavage of 0.12. In the case of A11U U34A, the self-cleavage is reported as 0.04. For A11U A41G, the self-cleavage was 0.05. With A12G C23U the self-cleavage was 0.03. G33U U34A showed a self-cleavage of 0.08. With G17A G29A the self-cleavage was 0.37. G7A C10A gave a self-cleavage of 0.05. A6C A16G showed a self-cleavage of 0.22. Work on C18G C37A yielded a self-cleavage of 0.07. G5A A14C gave a self-cleavage of 0.09. In the case of A14U U20C, the self-cleavage is reported as 0.19. Work on C31U U32G yielded a self-cleavage of 0.06. With A16U C46U the self-cleavage was 0.1. C3G U34C showed a self-cleavage of 0.1. Work on C18G C37U yielded a self-cleavage of 0.09. A39G G40A gave a self-cleavage of 0.05. C3A G5A showed a self-cleavage of 0.5. Variant G36C C37U has a self-cleavage of 0.06. Work on C10U U32C yielded a self-cleavage of 0.1. G2U G5A showed a self-cleavage of 0.06. U28A C45G gave a self-cleavage of 0.24. With G27A C37A the self-cleavage was 0.05. Variant G33A C37U has a self-cleavage of 0.04. G5C A11G showed a self-cleavage of 0.05. Variant G17A U34A has a self-cleavage of 0.04. For U28C U38A, the self-cleavage was 0.1. G17A G33A gave a self-cleavage of 0.05. For A14C G36A, the self-cleavage was 0.15. Work on U20A A24U yielded a self-cleavage of 0.62. In the case of C15G C31U, the self-cleavage is reported as 0.04. Work on G22U G40A yielded a self-cleavage of 0.2. For A26C C42U, the self-cleavage was 0.48. A11C C18A gave a self-cleavage of 0.02. With G36A G40C the self-cleavage was 0.27. Variant G1U C10A has a self-cleavage of 0.03. In the case of A26G G30A, the self-cleavage is reported as 2.6. Work on G19U A25G yielded a self-cleavage of 0.49. G1U C42A gave a self-cleavage of 0.07. G2C A41U showed a self-cleavage of 0.12. Variant G19A C31G has a self-cleavage of 0.17. Work on U38G G40A yielded a self-cleavage of 0.04. G5U A24U showed a self-cleavage of 0.08. In the case of C3U C15U, the self-cleavage is reported as 0.32. G44C showed a self-cleavage of 0.36. In the case of G17U G36A, the self-cleavage is reported as 0.09. For G2A G17C, the self-cleavage was 0.32. A14C A41G gave a self-cleavage of 0.05. For C3U C45U, the self-cleavage was 0.32. For G7U G33U, the self-cleavage was 0.13. Variant G7C U43A has a self-cleavage of 0.15. U9C C46A showed a self-cleavage of 0.03. Variant U20G C45A has a self-cleavage of 0.29. Work on G1A C42A yielded a self-cleavage of 0.06. A4C A25C showed a self-cleavage of 0.06. Work on U9G C31A yielded a self-cleavage of 0.04. U9A G19C gave a self-cleavage of 0.06. A12C U20G gave a self-cleavage of 0.01. A14U U28C gave a self-cleavage of 0.35. In the case of G7C A39G, the self-cleavage is reported as 0.08. For G2A A39C, the self-cleavage was 0.54. With A4U U34G the self-cleavage was 0.06. With C13A C45A the self-cleavage was 0.08. In the case of A16U C37U, the self-cleavage is reported as 0.06. U32G U34G gave a self-cleavage of 0.03. C8U A26G gave a self-cleavage of 0.29. Variant G21U A39C has a self-cleavage of 0.28. Work on G7C A16G yielded a self-cleavage of 0.06. For A16G C31G, the self-cleavage was 0.02. In the case of G1U A4G, the self-cleavage is reported as 0.25. A41U C45G showed a self-cleavage of 0.23. Work on A11U A25G yielded a self-cleavage of 0.07. Work on G21C U34G yielded a self-cleavage of 0.24. A6C U34A gave a self-cleavage of 0.05.
